According to the supplement of paper PMC10065799, “High-throughput profiling of sequence recognition by tyrosine kinases and SH2 domains using bacterial peptide display” (eLife, 2023):

What follows are sequences tested against Hck (UniProt P08631) (assay: phosphorylation enrichment, bacterial display (enrichment ratio); higher = better substrate or ligand; peptides without Tyr show the background).
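Further: 11-residue human phosphosite peptides and single-mutation variants displayed on the E. coli surface, counted by deep sequencing, each peptide's frequency after selection divided by its frequency in the unselected input library; frequency after pTyr selection over input frequency; kinase dosed for 20-30% of maximal phosphorylation in three min.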

Chain of Hck (P08631 whole entry, looked up): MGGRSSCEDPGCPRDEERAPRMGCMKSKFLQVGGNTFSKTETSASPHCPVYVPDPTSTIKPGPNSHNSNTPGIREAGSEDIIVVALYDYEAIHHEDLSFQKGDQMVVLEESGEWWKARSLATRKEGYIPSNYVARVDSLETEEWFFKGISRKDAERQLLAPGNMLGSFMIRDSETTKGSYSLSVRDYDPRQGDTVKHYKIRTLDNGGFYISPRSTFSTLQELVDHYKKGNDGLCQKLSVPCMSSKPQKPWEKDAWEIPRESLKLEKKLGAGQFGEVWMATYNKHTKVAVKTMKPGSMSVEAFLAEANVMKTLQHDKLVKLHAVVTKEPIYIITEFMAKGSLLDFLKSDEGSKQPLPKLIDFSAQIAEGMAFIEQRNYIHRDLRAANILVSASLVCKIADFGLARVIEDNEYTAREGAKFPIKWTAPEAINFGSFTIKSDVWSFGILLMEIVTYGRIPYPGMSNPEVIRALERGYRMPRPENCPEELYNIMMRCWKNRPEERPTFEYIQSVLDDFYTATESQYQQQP

First: WPQKLYNNFVN [MYO5C_Y526_L522P]
Second: TSSSSYFDEPV [ARFGAP3_Y356]
The phosphorylation enrichment of the first is higher: 0.528 for the first, 0.5 for the second.

Compared with ISKKHYAGLLF [POLD1_Y809_R808H], WEQELYSQLVF [WAS_Y102_YF] is higher in phosphorylation enrichment: 0.46 for the first, 7.88 for the second.

Compared with GFEVVYMTEPI [HSP90AB1_Y512], IVGRLYRLLTE [SETX_Y1978_L1976R] is lower in phosphorylation enrichment: 0.668 for the first, 0.387 for the second.

First: RTVPLYESPRK [DDB1_Y718]
Second: SIKNKYVTALY [KCNH2_Y611_D609N]
The phosphorylation enrichment of the first is higher: 10.5 for the first, 0.47 for the second.

Going from FEKNVYVDKNL [PTCHD3_Y688] to SYVVRYNQPRV [GRIN2D_Y736_M733V], the phosphorylation enrichment falls from 0.505 to 0.475.

First: RMDGKYACSYT [FLNB_Y704_T703K]
Second: VGTKQYMAPEV [ACVRL1_Y375_R374Q]
The phosphorylation enrichment of the first is higher: 0.541 for the first, 0.429 for the second.

Compared with RFLERDIYNRE [HLA-DPB1_Y57_Y57D], HYGNNYTDVLQ [MACC1_Y803_R804T] is lower in phosphorylation enrichment: 10.7 for the first, 1.12 for the second.

Going from KGKLIYLLGDS [NXPE1_Y350] to KIEGVYARDET [RPL35A_Y34], the phosphorylation enrichment rises from 0.478 to 0.586.

First: NFDLDYDSVQP [MYC_Y16_YF]
Second: IDGLEYLHSPG [STK11_Y166_Q170P]
The phosphorylation enrichment of the first is higher: 0.575 for the first, 0.454 for the second.

First: VVQGLYKSMPK [KBTBD2_Y250]
Second: NNIDFYKNTTN [FGFR2_Y657_K659N_YF]
The phosphorylation enrichment of the first is lower: 0.438 for the first, 0.553 for the second.

Going from PAIYTYDEYKK [COL8A2_Y648_T645I] to PEVSGYCHFAD [TG_Y234_C237Y_YF], the phosphorylation enrichment falls from 8.13 to 0.639.

First: GEHSIYSTVNN [CD55_Y266_C267S]
Second: KVGNEYVTKGQ [MYH7_Y410]
The phosphorylation enrichment of the first is higher: 10.9 for the first, 0.334 for the second.

First: DTNIAYWLHPR [POMT1_Y581]
Second: NACGLYHTMNG [GATA5_Y216_K218T]
The phosphorylation enrichment of the first is lower: 0.633 for the first, 2.21 for the second.

Going from NQILPYIKELV [PPP2R1B_Y341] to HEGKIYEYNQV [ZNF665_Y162], the phosphorylation enrichment rises from 0.52 to 2.04.

Going from ENFDDYMKEVG [FABP4_Y20] to LVKDGYQMAQP [CSF1R_Y873], the phosphorylation enrichment falls from 0.527 to 0.499.

Compared with PEADKYCLTFA [FGG_Y300_R301C_YF], KHMADYPDYKY [SOX11_Y113] is lower in phosphorylation enrichment: 1.5 for the first, 0.401 for the second.

Sequence ICRWVYPLTPE [EIF2B5_Y319_R315C] has a phosphorylation enrichment of 0.585.

What follows are sequences tested against Jak2 (UniProt O60674) in the same assay as above.
Chain of Jak2 (O60674 whole entry, looked up): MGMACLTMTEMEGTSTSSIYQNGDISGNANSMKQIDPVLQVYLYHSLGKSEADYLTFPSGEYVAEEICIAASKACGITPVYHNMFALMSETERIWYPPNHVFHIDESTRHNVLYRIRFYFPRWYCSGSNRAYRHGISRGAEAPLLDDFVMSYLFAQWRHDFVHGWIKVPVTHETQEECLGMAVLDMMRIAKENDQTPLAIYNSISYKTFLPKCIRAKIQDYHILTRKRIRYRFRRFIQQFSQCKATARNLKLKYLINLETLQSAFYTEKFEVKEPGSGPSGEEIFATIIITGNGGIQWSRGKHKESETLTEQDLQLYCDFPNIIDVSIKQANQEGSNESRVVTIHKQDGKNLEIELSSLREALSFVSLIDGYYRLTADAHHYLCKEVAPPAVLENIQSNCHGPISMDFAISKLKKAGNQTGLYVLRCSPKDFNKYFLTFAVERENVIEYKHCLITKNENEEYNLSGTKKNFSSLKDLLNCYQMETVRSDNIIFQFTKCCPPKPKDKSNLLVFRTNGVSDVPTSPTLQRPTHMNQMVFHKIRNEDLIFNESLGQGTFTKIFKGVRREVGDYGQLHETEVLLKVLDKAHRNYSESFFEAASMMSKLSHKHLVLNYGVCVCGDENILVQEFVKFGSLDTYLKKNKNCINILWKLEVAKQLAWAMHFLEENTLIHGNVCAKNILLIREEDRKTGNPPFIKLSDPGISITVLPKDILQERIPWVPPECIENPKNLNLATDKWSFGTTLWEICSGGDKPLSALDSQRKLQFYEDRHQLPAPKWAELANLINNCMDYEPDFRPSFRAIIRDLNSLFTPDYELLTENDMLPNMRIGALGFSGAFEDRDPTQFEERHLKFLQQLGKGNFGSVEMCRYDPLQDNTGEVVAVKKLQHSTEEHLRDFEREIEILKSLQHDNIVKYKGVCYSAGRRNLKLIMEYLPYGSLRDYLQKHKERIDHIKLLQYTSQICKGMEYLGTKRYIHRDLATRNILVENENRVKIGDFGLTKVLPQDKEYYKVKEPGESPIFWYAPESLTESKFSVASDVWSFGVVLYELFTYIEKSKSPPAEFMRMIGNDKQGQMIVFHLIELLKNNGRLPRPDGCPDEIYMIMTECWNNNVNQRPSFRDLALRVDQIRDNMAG

First: WPQKLYNNFVN [MYO5C_Y526_L522P]
Second: TSSSSYFDEPV [ARFGAP3_Y356]
The phosphorylation enrichment of the first is lower: 0.725 for the first, 0.98 for the second.

Compared with ISKKHYAGLLF [POLD1_Y809_R808H], WEQELYSQLVF [WAS_Y102_YF] is higher in phosphorylation enrichment: 0.636 for the first, 1.38 for the second.

Going from GFEVVYMTEPI [HSP90AB1_Y512] to IVGRLYRLLTE [SETX_Y1978_L1976R], the phosphorylation enrichment falls from 1.4 to 0.954.

First: RTVPLYESPRK [DDB1_Y718]
Second: SIKNKYVTALY [KCNH2_Y611_D609N]
The phosphorylation enrichment of the first is higher: 0.833 for the first, 0.605 for the second.

Going from FEKNVYVDKNL [PTCHD3_Y688] to SYVVRYNQPRV [GRIN2D_Y736_M733V], the phosphorylation enrichment falls from 0.732 to 0.725.

Going from RMDGKYACSYT [FLNB_Y704_T703K] to VGTKQYMAPEV [ACVRL1_Y375_R374Q], the phosphorylation enrichment rises from 0.722 to 0.738.

Going from RFLERDIYNRE [HLA-DPB1_Y57_Y57D] to HYGNNYTDVLQ [MACC1_Y803_R804T], the phosphorylation enrichment rises from 0.764 to 1.35.

First: KGKLIYLLGDS [NXPE1_Y350]
Second: KIEGVYARDET [RPL35A_Y34]
The phosphorylation enrichment of the first is lower: 0.639 for the first, 0.681 for the second.

First: NFDLDYDSVQP [MYC_Y16_YF]
Second: IDGLEYLHSPG [STK11_Y166_Q170P]
The phosphorylation enrichment of the first is higher: 1.06 for the first, 0.746 for the second.

First: VVQGLYKSMPK [KBTBD2_Y250]
Second: NNIDFYKNTTN [FGFR2_Y657_K659N_YF]
The phosphorylation enrichment of the first is lower: 0.516 for the first, 0.574 for the second.

Compared with PAIYTYDEYKK [COL8A2_Y648_T645I], PEVSGYCHFAD [TG_Y234_C237Y_YF] is lower in phosphorylation enrichment: 1.27 for the first, 1.15 for the second.

Compared with GEHSIYSTVNN [CD55_Y266_C267S], KVGNEYVTKGQ [MYH7_Y410] is lower in phosphorylation enrichment: 0.536 for the first, 0.471 for the second.

Compared with DTNIAYWLHPR [POMT1_Y581], NACGLYHTMNG [GATA5_Y216_K218T] is higher in phosphorylation enrichment: 0.813 for the first, 0.956 for the second.

Going from NQILPYIKELV [PPP2R1B_Y341] to HEGKIYEYNQV [ZNF665_Y162], the phosphorylation enrichment rises from 1.08 to 1.39.

Going from ENFDDYMKEVG [FABP4_Y20] to LVKDGYQMAQP [CSF1R_Y873], the phosphorylation enrichment falls from 1.06 to 0.512.

First: PEADKYCLTFA [FGG_Y300_R301C_YF]
Second: KHMADYPDYKY [SOX11_Y113]
The phosphorylation enrichment of the first is higher: 1.71 for the first, 0.442 for the second.

With ICRWVYPLTPE [EIF2B5_Y319_R315C] the phosphorylation enrichment was 1.14.

These sequences were tested against MERTK (UniProt Q12866) in the same assay as above.
Chain of MERTK (Q12866 whole entry, looked up): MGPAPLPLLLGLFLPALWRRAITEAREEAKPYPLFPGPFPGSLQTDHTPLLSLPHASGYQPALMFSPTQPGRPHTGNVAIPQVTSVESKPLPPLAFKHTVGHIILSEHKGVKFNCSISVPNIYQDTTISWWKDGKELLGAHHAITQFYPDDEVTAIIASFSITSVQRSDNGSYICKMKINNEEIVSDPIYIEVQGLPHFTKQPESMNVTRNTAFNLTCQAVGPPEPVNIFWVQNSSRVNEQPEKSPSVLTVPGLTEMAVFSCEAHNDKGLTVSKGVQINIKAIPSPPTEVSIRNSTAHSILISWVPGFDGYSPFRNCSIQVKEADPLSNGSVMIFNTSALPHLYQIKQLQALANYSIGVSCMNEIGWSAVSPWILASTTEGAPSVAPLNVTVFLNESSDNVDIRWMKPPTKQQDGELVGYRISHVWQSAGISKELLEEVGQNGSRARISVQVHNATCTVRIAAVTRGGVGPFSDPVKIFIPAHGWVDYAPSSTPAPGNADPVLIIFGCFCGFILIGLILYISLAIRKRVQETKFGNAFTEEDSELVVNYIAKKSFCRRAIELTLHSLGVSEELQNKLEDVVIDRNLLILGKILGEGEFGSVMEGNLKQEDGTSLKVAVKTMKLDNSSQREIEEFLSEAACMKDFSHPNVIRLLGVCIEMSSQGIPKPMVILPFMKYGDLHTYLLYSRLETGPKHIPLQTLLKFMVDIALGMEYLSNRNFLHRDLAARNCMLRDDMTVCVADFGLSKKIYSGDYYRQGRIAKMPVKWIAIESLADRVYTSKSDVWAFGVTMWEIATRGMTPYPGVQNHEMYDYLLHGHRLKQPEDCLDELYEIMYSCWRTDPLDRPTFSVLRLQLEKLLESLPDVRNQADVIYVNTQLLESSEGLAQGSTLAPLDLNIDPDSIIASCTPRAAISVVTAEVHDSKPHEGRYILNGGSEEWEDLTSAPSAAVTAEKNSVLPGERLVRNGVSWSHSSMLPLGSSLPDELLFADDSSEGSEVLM

Going from WPQKLYNNFVN [MYO5C_Y526_L522P] to TSSSSYFDEPV [ARFGAP3_Y356], the phosphorylation enrichment falls from 0.505 to 0.421.

Compared with ISKKHYAGLLF [POLD1_Y809_R808H], WEQELYSQLVF [WAS_Y102_YF] is higher in phosphorylation enrichment: 0.456 for the first, 8.62 for the second.

Compared with GFEVVYMTEPI [HSP90AB1_Y512], IVGRLYRLLTE [SETX_Y1978_L1976R] is lower in phosphorylation enrichment: 0.405 for the first, 0.396 for the second.

Going from RTVPLYESPRK [DDB1_Y718] to SIKNKYVTALY [KCNH2_Y611_D609N], the phosphorylation enrichment falls from 7.82 to 0.528.

First: FEKNVYVDKNL [PTCHD3_Y688]
Second: SYVVRYNQPRV [GRIN2D_Y736_M733V]
The phosphorylation enrichment of the first is higher: 0.411 for the first, 0.375 for the second.

Going from RMDGKYACSYT [FLNB_Y704_T703K] to VGTKQYMAPEV [ACVRL1_Y375_R374Q], the phosphorylation enrichment falls from 0.484 to 0.469.

Compared with RFLERDIYNRE [HLA-DPB1_Y57_Y57D], HYGNNYTDVLQ [MACC1_Y803_R804T] is lower in phosphorylation enrichment: 1.26 for the first, 0.935 for the second.

Compared with KGKLIYLLGDS [NXPE1_Y350], KIEGVYARDET [RPL35A_Y34] is higher in phosphorylation enrichment: 0.343 for the first, 0.386 for the second.

Going from NFDLDYDSVQP [MYC_Y16_YF] to IDGLEYLHSPG [STK11_Y166_Q170P], the phosphorylation enrichment falls from 0.458 to 0.431.

Compared with VVQGLYKSMPK [KBTBD2_Y250], NNIDFYKNTTN [FGFR2_Y657_K659N_YF] is lower in phosphorylation enrichment: 0.532 for the first, 0.352 for the second.

First: PAIYTYDEYKK [COL8A2_Y648_T645I]
Second: PEVSGYCHFAD [TG_Y234_C237Y_YF]
The phosphorylation enrichment of the first is higher: 13.5 for the first, 0.384 for the second.

Going from GEHSIYSTVNN [CD55_Y266_C267S] to KVGNEYVTKGQ [MYH7_Y410], the phosphorylation enrichment falls from 7.23 to 0.332.

Compared with DTNIAYWLHPR [POMT1_Y581], NACGLYHTMNG [GATA5_Y216_K218T] is higher in phosphorylation enrichment: 0.803 for the first, 3.18 for the second.

Compared with NQILPYIKELV [PPP2R1B_Y341], HEGKIYEYNQV [ZNF665_Y162] is higher in phosphorylation enrichment: 0.456 for the first, 6.51 for the second.

Going from ENFDDYMKEVG [FABP4_Y20] to LVKDGYQMAQP [CSF1R_Y873], the phosphorylation enrichment falls from 0.396 to 0.32.

Going from PEADKYCLTFA [FGG_Y300_R301C_YF] to KHMADYPDYKY [SOX11_Y113], the phosphorylation enrichment falls from 0.758 to 0.322.

For ICRWVYPLTPE [EIF2B5_Y319_R315C], the phosphorylation enrichment was 0.505.

The sequences below were run on c-Abl (mouse) in the same assay as above.

Compared with WPQKLYNNFVN [MYO5C_Y526_L522P], TSSSSYFDEPV [ARFGAP3_Y356] is higher in phosphorylation enrichment: 0.687 for the first, 0.841 for the second.

First: ISKKHYAGLLF [POLD1_Y809_R808H]
Second: WEQELYSQLVF [WAS_Y102_YF]
The phosphorylation enrichment of the first is lower: 0.521 for the first, 1.81 for the second.

First: GFEVVYMTEPI [HSP90AB1_Y512]
Second: IVGRLYRLLTE [SETX_Y1978_L1976R]
The phosphorylation enrichment of the first is higher: 0.693 for the first, 0.676 for the second.

Going from RTVPLYESPRK [DDB1_Y718] to SIKNKYVTALY [KCNH2_Y611_D609N], the phosphorylation enrichment falls from 26 to 0.454.

First: FEKNVYVDKNL [PTCHD3_Y688]
Second: SYVVRYNQPRV [GRIN2D_Y736_M733V]
The phosphorylation enrichment of the first is lower: 0.616 for the first, 0.717 for the second.

Going from RMDGKYACSYT [FLNB_Y704_T703K] to VGTKQYMAPEV [ACVRL1_Y375_R374Q], the phosphorylation enrichment falls from 0.79 to 0.674.

First: RFLERDIYNRE [HLA-DPB1_Y57_Y57D]
Second: HYGNNYTDVLQ [MACC1_Y803_R804T]
The phosphorylation enrichment of the first is lower: 0.787 for the first, 2.17 for the second.

Compared with KGKLIYLLGDS [NXPE1_Y350], KIEGVYARDET [RPL35A_Y34] is higher in phosphorylation enrichment: 0.529 for the first, 0.633 for the second.

Compared with NFDLDYDSVQP [MYC_Y16_YF], IDGLEYLHSPG [STK11_Y166_Q170P] is lower in phosphorylation enrichment: 0.68 for the first, 0.5 for the second.

Compared with VVQGLYKSMPK [KBTBD2_Y250], NNIDFYKNTTN [FGFR2_Y657_K659N_YF] is higher in phosphorylation enrichment: 0.492 for the first, 0.57 for the second.

First: PAIYTYDEYKK [COL8A2_Y648_T645I]
Second: PEVSGYCHFAD [TG_Y234_C237Y_YF]
The phosphorylation enrichment of the first is higher: 1.04 for the first, 0.937 for the second.

First: GEHSIYSTVNN [CD55_Y266_C267S]
Second: KVGNEYVTKGQ [MYH7_Y410]
The phosphorylation enrichment of the first is higher: 6.92 for the first, 0.469 for the second.

Compared with DTNIAYWLHPR [POMT1_Y581], NACGLYHTMNG [GATA5_Y216_K218T] is higher in phosphorylation enrichment: 0.473 for the first, 0.746 for the second.

Going from NQILPYIKELV [PPP2R1B_Y341] to HEGKIYEYNQV [ZNF665_Y162], the phosphorylation enrichment rises from 0.72 to 5.38.

First: ENFDDYMKEVG [FABP4_Y20]
Second: LVKDGYQMAQP [CSF1R_Y873]
The phosphorylation enrichment of the first is higher: 0.707 for the first, 0.691 for the second.

Going from PEADKYCLTFA [FGG_Y300_R301C_YF] to KHMADYPDYKY [SOX11_Y113], the phosphorylation enrichment falls from 1.32 to 0.404.

Sequence ICRWVYPLTPE [EIF2B5_Y319_R315C] has a phosphorylation enrichment of 0.739.
